Test results as given in publication doi:10.1101/780452.

Target: BSA-Man (glycoprotein bearing 12 glycosylated sites) (bovine (from the name BSA)), P02769
Experiment: SPR
Details: remark: other sources report otherwise

BSA-Man (glycoprotein bearing 12 glycosylated sites) (bovine (from the name BSA)), P02769, sequence (P02769 25-607): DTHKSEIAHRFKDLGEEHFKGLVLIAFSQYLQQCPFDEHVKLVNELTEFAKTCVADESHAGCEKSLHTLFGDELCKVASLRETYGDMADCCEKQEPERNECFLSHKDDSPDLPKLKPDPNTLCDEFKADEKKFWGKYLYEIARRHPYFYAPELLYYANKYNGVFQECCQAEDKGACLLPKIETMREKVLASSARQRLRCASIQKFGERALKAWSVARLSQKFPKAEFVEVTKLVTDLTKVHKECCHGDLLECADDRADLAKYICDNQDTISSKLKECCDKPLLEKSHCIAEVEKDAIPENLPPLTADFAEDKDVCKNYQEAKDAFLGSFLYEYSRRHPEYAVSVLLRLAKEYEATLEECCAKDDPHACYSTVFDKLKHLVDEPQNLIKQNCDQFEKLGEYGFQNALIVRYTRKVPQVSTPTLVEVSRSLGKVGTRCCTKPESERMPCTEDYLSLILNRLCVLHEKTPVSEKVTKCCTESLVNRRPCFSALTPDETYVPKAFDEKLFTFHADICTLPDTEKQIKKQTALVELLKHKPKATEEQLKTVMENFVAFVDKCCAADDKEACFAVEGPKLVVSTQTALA

- Kd: 3.74 µM
B1: DC-SIGN ECD (construct without StreptagII), Q9NNX6 59-404 (domain or fragment)
chain: QVSKVPSSISQEQSRQDAIYQNLTQLKAAVGELSEKSKLQEIYQELTQLKAAVGELPEKSKLQEIYQELTRLKAAVGELPEKSKLQEIYQELTWLKAAVGELPEKSKMQEIYQELTRLKAAVGELPEKSKQQEIYQELTRLKAAVGELPEKSKQQEIYQELTRLKAAVGELPEKSKQQEIYQELTQLKAAVERLCHPCPWEWTFFQGNCYFMSNSQRNWHDSITACKEVGAQLVVIKSAEEQNFLQLQSSRSNRFTWMGLSDLNQEGTWQWVDGSPLLPSFKQYWNRGEPNNVGEEDCAEFSGNGWNDDKCNLAKFWICKKSAASCSRDEEQFLSPAPATPNPPPA
modifications: here or on the partner: 12 glycosylated sites (mannose glycans, up to 12 glycans displayed)
